Test results: patent US20230192819A1 (TWIST BIOSCIENCE, published 2023)
Values joined by “and” are separate entries in the source; they are usually repeats but may differ in a detail not shown here. Equal values may be shown once. Read-outs that look alike come from different tables or passages of the source.

B1: Antibody 1-1 (Fc fusion)
chain: EVQLVESGGGLVQPGGSLRLSCAASGSIGSINAMGWFRQAPGKEREWVAGISNGGTTNYADSVKGRFTISADNSKNTAYLQMNSLKPEDTAVYYCAADGVPEYSDYASGPVWGQGTLVTVSS
B2: Antibody 1-15 (Fc fusion)
chain: EVQLVESGGGLVQPGGSLRLSCAASGGIFSDMFMGWFRQAPGKEREFVATIDWSGDTAFYADSVKGRFTISADNSKNTAYLQMNSLKPEDTAVYYCAVDLSGDAVYDWGQGTLVTVSS
B3: Antibody 1-7 (Fc fusion)
chain: EVQLVESGGGLVQPGGSLRLSCAASGGTFSSIGMGWFRQAPGKEREFVAAISWDGGATAYADSVKGRFTISADNSKNTVYLQMNSLKPEDTAVYYCAKEDVGKPFDWGQGTLVTVSS

Assays:
[1] = target: California Variant W152C_L452R_D614G
[2] = target: T1, Acro S1 spike protein (SARS-CoV-2) (SARS-CoV-2, UniProt P0DTC2 16-685)
[3] = target: T2, S1 variant B.1.1.7: UK (Acro) spike protein (SARS-CoV-2, UniProt P0DTC2 16-1213)
[4] = target: T3, C52Hg Brazilian variant (Acro) spike protein (SARS-CoV-2, UniProt P0DTC2 16-1213)
[5] = target: Delta variant (Acro) spike protein (SARS-CoV-2, UniProt P0DTC2 16-1213)
[6] = target: T4, C52Hk S. African variant (Acro) spike protein (SARS-CoV-2, UniProt P0DTC2 16-1213)
[7] = target: T1, Acro S1 spike protein (SARS-CoV-2); test: SPR (Carterra LSA); […]; 1:1 model; […]
[8] = target: T2, S1 variant B.1.1.7: UK (Acro) spike …; test: SPR (Carterra LSA); […]; 1:1 model; […]
[9] = target: T4, C52Hk S. African variant (Acro) spike …; test: SPR (Carterra LSA); […]; 1:1 model; […]
[10] = target: T3, C52Hg Brazilian variant (Acro) spike …; test: SPR (Carterra LSA); […]; 1:1 model; […]
[11] = target: T1, Acro S1 spike protein (SARS-CoV-2); test: SPR (Carterra LSA); antibody on chip, spike protein as analyte; summary table
[12] = target: T2, S1 variant B.1.1.7: UK (Acro) spike …; test: as above
[13] = target: T4, C52Hk S. African variant (Acro) spike …; test: as above
[14] = target: T3, C52Hg Brazilian variant (Acro) spike …; test: as above

Binder	IC50 [1]	Kd [2]	kon [2]	koff [4]	Kd [7]	koff [7]	kon [7]	Kd [8]	koff [8]	kon [8]	Kd [9]	koff [9]	kon [9]	Kd [10]	koff [10]	kon [10]	Kd [11]	Kd [12]	Kd [13]	Kd [14]	other results
B1	4.4 nM	2.8 nM and 4 nM	135000 M⁻¹ s⁻¹ and 112000 M⁻¹ s⁻¹	0.000724 s⁻¹ and 0.000956 s⁻¹	0.677 nM	0.00042 s⁻¹	620000 M⁻¹ s⁻¹	0.867 nM	0.00052 s⁻¹	600000 M⁻¹ s⁻¹	1.07 nM	0.00058 s⁻¹	540000 M⁻¹ s⁻¹	0.691 nM	0.00038 s⁻¹	550000 M⁻¹ s⁻¹	0.677 nM	0.867 nM	1.07 nM	0.691 nM	koff [2]: 0.000378 s⁻¹ and 0.000446 s⁻¹; Kd [3]: 0.82 nM and 2.06 nM; koff [3]: 0.00024 s⁻¹ and 0.000189 s⁻¹; Kd [4]: 5.57 nM and 9.51 nM; kon [4]: 130000 M⁻¹ s⁻¹ and 100000 M⁻¹ s⁻¹; Kd [5]: 2.31 nM and 2.22 nM; koff [5]: 0.000433 s⁻¹ and 0.000358 s⁻¹; kon [5]: 188000 M⁻¹ s⁻¹ and 161000 M⁻¹ s⁻¹; Kd [6]: 6.2 nM; koff [6]: 0.000806 s⁻¹; kon [6]: 130000 M⁻¹ s⁻¹
B2	66.7 nM	5.43 nM and 10.9 nM	62400 M⁻¹ s⁻¹ and 50200 M⁻¹ s⁻¹	1e-05 s⁻¹	10.4 nM	0.00094 s⁻¹	90000 M⁻¹ s⁻¹	0.828 nM	0.00024 s⁻¹	290000 M⁻¹ s⁻¹	1.04 nM	0.00028 s⁻¹	270000 M⁻¹ s⁻¹	1.04 nM	0.00028 s⁻¹	270000 M⁻¹ s⁻¹	10.4 nM	0.828 nM	1.4 nM	1.04 nM	koff [2]: 0.000339 s⁻¹ and 0.000547 s⁻¹; Kd [3]: 0.708 nM and 0.82 nM; koff [3]: 5.5e-05 s⁻¹; kon [3]: 77700 M⁻¹ s⁻¹
B3	0.111 nM		130000 M⁻¹ s⁻¹ and 161000 M⁻¹ s⁻¹	0.00081 s⁻¹ and 0.00121 s⁻¹	1.31 nM	0.00047 s⁻¹	360000 M⁻¹ s⁻¹	1.11 nM	0.0004 s⁻¹	360000 M⁻¹ s⁻¹	1.36 nM	0.00049 s⁻¹	360000 M⁻¹ s⁻¹	0.962 nM	0.00025 s⁻¹	260000 M⁻¹ s⁻¹	1.31 nM	1.11 nM	1.36 nM	0.962 nM	kon [3]: 144000 M⁻¹ s⁻¹ and 188000 M⁻¹ s⁻¹; Kd [4]: 8.53 nM and 12.5 nM; kon [4]: 95000 M⁻¹ s⁻¹ and 96200 M⁻¹ s⁻¹; Kd [5]: 0.114 nM and 0.0579 nM; koff [5]: 1.87e-05 s⁻¹ and 1e-05 s⁻¹; kon [5]: 164000 M⁻¹ s⁻¹ and 173000 M⁻¹ s⁻¹; Kd [6]: 8.2 nM and 7.9 nM; koff [6]: 0.000459 s⁻¹ and 0.000521 s⁻¹; kon [6]: 56000 M⁻¹ s⁻¹ and 66000 M⁻¹ s⁻¹
